Reference: the supplement of paper PMC6757056
± gives the standard deviation of the averaged measurements.

B1: library; a variant is named by its letters at N, in order (parent)
chain: GCUGUCACCGGAAUACCAGCAUCGUCUUGAUGCCCUUGGAAGUCCGGUCUGAUGAGUCCNNNNNGGACGAAACAGC

Experiments:
theophylline [1] = variants of: B1; experiment: FACS-Seq fitted mean relative fluorescence mCherry/BFP without ligand (log10 relative fluorescence); higher = higher reporter protein expression; conditions: HEK293T, ligand present: no
Procedure, shortened: (§1)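 After lentiviral transduction, HEK293T library cells bearing an mCherry ribozyme-switch reporter and an EF1α-BFP marker were enriched. They were then held for 48 h with or without ligand and sorted by mCherry/BFP into 6 bins, and each bin's genomic DNA was PCR-amplified, barcoded and MiSeq-sequenced. Fluorescence is expressed as a normalized fitted mean: the normal mean of log10(mCherry/BFP) bin counts, scaled to five spiked-in control ribozymes.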

theophylline [2] = variants of: B1; experiment: normalized RNA/DNA level with ligand (relative to sTRSVctl = 100) (log10 (% of sTRSVctl)); higher = less ribozyme self-cleavage, higher mRNA level; conditions: ligand concentration (+) RNA-Seq: 5 mM, HEK293T, reporter: mCherry (pCS4076), ligand present: yes
Procedure, shortened: (§2)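 HEK293T cells received ligand, where used, 1 h before being transfected with 4 µg per 6-well well of library plasmids encoding reporter-linked ribozyme switches. After 72 h, RNA was extracted with EDTA and sequenced. RNA level was derived from RNA reads per DNA read, normalized to a spiked-in non-cleaving sequence or the top sequences, then scaled and log-transformed. Values were ×100 then log10, the top set was 25 sequences, and the minimum was 100 DNA reads.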

theophylline [3] = variants of: B1; experiment: normalized RNA/DNA level without ligand (relative to sTRSVctl = 100) (log10 (% of sTRSVctl)); higher = less ribozyme self-cleavage, higher mRNA level; conditions: HEK293T, reporter: mCherry (pCS4076), ligand present: no
Procedure, shortened: as §2

theophylline [4] = variants of: B1; experiment: FACS-Seq fitted mean relative fluorescence mCherry/BFP with ligand (log10 relative fluorescence); ligand concentration (+) FACS-Seq: 1 mM; higher = higher reporter protein expression; conditions: HEK293T, ligand present: yes
Procedure, shortened: as §1

In the case of GCUGUCACCGGAAUACCAGCAUCGUCUUGAUGCCCUUGGAAGUCCGGUCUGAUGAGUCCAGGUCGGACGAAACAGC [AGGUC], the “FACS-Seq fitted mean (log10)” value (theophylline [1]) is reported as 0.52 ± 0.032, the “normalized RNA/DNA level with ligand (log10)” value (theophylline [2]) is reported as 1.95 ± 0.15 and the “normalized RNA/DNA level without ligand (log10)” value (theophylline [3]) is reported as 1.872 ± 0.016. For the same variant, the “FACS-Seq fitted mean (log10)” value (theophylline [4]) was 0.587 ± 0.049.

GCUGUCACCGGAAUACCAGCAUCGUCUUGAUGCCCUUGGAAGUCCGGUCUGAUGAGUCCAGGUAGGACGAAACAGC [AGGUA] was tested, and the “FACS-Seq fitted mean (log10)” value (theophylline [1]) was 0.987 ± 0.032, the “normalized RNA/DNA level with ligand (log10)” value (theophylline [2]) was 1.979 ± 0.0062 and the “normalized RNA/DNA level without ligand (log10)” value (theophylline [3]) was 1.66 ± 0.04. For the same variant, the “FACS-Seq fitted mean (log10)” value (theophylline [4]) was 1.26 ± 0.14.

In the case of GCUGUCACCGGAAUACCAGCAUCGUCUUGAUGCCCUUGGAAGUCCGGUCUGAUGAGUCCCAAGUGGACGAAACAGC [CAAGU], the “FACS-Seq fitted mean (log10)” value (theophylline [1]) is reported as 0.759 ± 0.043, the “normalized RNA/DNA level with ligand (log10)” value (theophylline [2]) is reported as 1.976 ± 0.016 and the “normalized RNA/DNA level without ligand (log10)” value (theophylline [3]) is reported as 1.94 ± 0.067. The “FACS-Seq fitted mean (log10)” value (theophylline [4]) was 0.761 ± 0.14.

With GCUGUCACCGGAAUACCAGCAUCGUCUUGAUGCCCUUGGAAGUCCGGUCUGAUGAGUCCCUGCCGGACGAAACAGC [CUGCC] the “FACS-Seq fitted mean (log10)” value (theophylline [1]) was 0.906 ± 0.094, the “normalized RNA/DNA level with ligand (log10)” value (theophylline [2]) was 2.09 ± 0.045 and the “normalized RNA/DNA level without ligand (log10)” value (theophylline [3]) was 1.9591 ± 0.0014. The “FACS-Seq fitted mean (log10)” value (theophylline [4]) was 0.841 ± 0.055.

With GCUGUCACCGGAAUACCAGCAUCGUCUUGAUGCCCUUGGAAGUCCGGUCUGAUGAGUCCUCUAAGGACGAAACAGC [UCUAA] the “FACS-Seq fitted mean (log10)” value (theophylline [1]) was 0.476 ± 0.055, the “normalized RNA/DNA level with ligand (log10)” value (theophylline [2]) was 2.03 ± 0.14 and the “normalized RNA/DNA level without ligand (log10)” value (theophylline [3]) was 1.68 ± 0.095. The “FACS-Seq fitted mean (log10)” value (theophylline [4]) was 0.588 ± 0.039.

GCUGUCACCGGAAUACCAGCAUCGUCUUGAUGCCCUUGGAAGUCCGGUCUGAUGAGUCCUACAUGGACGAAACAGC [UACAU] was tested, and the “FACS-Seq fitted mean (log10)” value (theophylline [1]) was 0.684 ± 0.015, the “normalized RNA/DNA level with ligand (log10)” value (theophylline [2]) was 2.03 ± 0.17 and the “normalized RNA/DNA level without ligand (log10)” value (theophylline [3]) was 1.91 ± 0.14. For the same variant, the “FACS-Seq fitted mean (log10)” value (theophylline [4]) was 0.722 ± 0.0088.

GCUGUCACCGGAAUACCAGCAUCGUCUUGAUGCCCUUGGAAGUCCGGUCUGAUGAGUCCCAAUAGGACGAAACAGC [CAAUA] was tested, and the “FACS-Seq fitted mean (log10)” value (theophylline [1]) was 0.192 ± 0.018, the “normalized RNA/DNA level with ligand (log10)” value (theophylline [2]) was 1.96 ± 0.054 and the “normalized RNA/DNA level without ligand (log10)” value (theophylline [3]) was 1.16 ± 0.17. The “FACS-Seq fitted mean (log10)” value (theophylline [4]) was 0.785 ± 0.033.

In the case of GCUGUCACCGGAAUACCAGCAUCGUCUUGAUGCCCUUGGAAGUCCGGUCUGAUGAGUCCUGUACGGACGAAACAGC [UGUAC], the “FACS-Seq fitted mean (log10)” value (theophylline [1]) is reported as 0.923 ± 0.082, the “normalized RNA/DNA level with ligand (log10)” value (theophylline [2]) is reported as 1.98 ± 0.024 and the “normalized RNA/DNA level without ligand (log10)” value (theophylline [3]) is reported as 1.95 ± 0.045. For the same variant, the “FACS-Seq fitted mean (log10)” value (theophylline [4]) was 0.851 ± 0.13.

In the case of GCUGUCACCGGAAUACCAGCAUCGUCUUGAUGCCCUUGGAAGUCCGGUCUGAUGAGUCCUACUUGGACGAAACAGC [UACUU], the “FACS-Seq fitted mean (log10)” value (theophylline [1]) is reported as 0.59 ± 0.079, the “normalized RNA/DNA level with ligand (log10)” value (theophylline [2]) is reported as 2.01 ± 0.023 and the “normalized RNA/DNA level without ligand (log10)” value (theophylline [3]) is reported as 1.9 ± 0.041. For the same variant, the “FACS-Seq fitted mean (log10)” value (theophylline [4]) was 0.754 ± 0.026.

In the case of GCUGUCACCGGAAUACCAGCAUCGUCUUGAUGCCCUUGGAAGUCCGGUCUGAUGAGUCCUACCGGGACGAAACAGC [UACCG], the “FACS-Seq fitted mean (log10)” value (theophylline [1]) is reported as 1.2 ± 0.1, the “normalized RNA/DNA level with ligand (log10)” value (theophylline [2]) is reported as 2.01 ± 0.067 and the “normalized RNA/DNA level without ligand (log10)” value (theophylline [3]) is reported as 2 ± 0.032. For the same variant, the “FACS-Seq fitted mean (log10)” value (theophylline [4]) was 1.09 ± 0.086.

GCUGUCACCGGAAUACCAGCAUCGUCUUGAUGCCCUUGGAAGUCCGGUCUGAUGAGUCCAAGGAGGACGAAACAGC [AAGGA] was tested, and the “FACS-Seq fitted mean (log10)” value (theophylline [1]) was 0.338 ± 0.022, the “normalized RNA/DNA level with ligand (log10)” value (theophylline [2]) was 2 ± 0.025 and the “normalized RNA/DNA level without ligand (log10)” value (theophylline [3]) was 1.43 ± 0.099. The “FACS-Seq fitted mean (log10)” value (theophylline [4]) was 0.8561 ± 0.0071.

For GCUGUCACCGGAAUACCAGCAUCGUCUUGAUGCCCUUGGAAGUCCGGUCUGAUGAGUCCUCGCCGGACGAAACAGC [UCGCC], the “FACS-Seq fitted mean (log10)” value (theophylline [1]) was 1.03 ± 0.1, the “normalized RNA/DNA level with ligand (log10)” value (theophylline [2]) was 2 ± 0.095 and the “normalized RNA/DNA level without ligand (log10)” value (theophylline [3]) was 1.872 ± 0.014. The “FACS-Seq fitted mean (log10)” value (theophylline [4]) was 1.06 ± 0.095.

For GCUGUCACCGGAAUACCAGCAUCGUCUUGAUGCCCUUGGAAGUCCGGUCUGAUGAGUCCAAUUUGGACGAAACAGC [AAUUU], the “FACS-Seq fitted mean (log10)” value (theophylline [1]) was 0.603 ± 0.084, the “normalized RNA/DNA level with ligand (log10)” value (theophylline [2]) was 1.98 ± 0.021 and the “normalized RNA/DNA level without ligand (log10)” value (theophylline [3]) was 1.915 ± 0.0083. For the same variant, the “FACS-Seq fitted mean (log10)” value (theophylline [4]) was 0.6371 ± 0.0013.

For GCUGUCACCGGAAUACCAGCAUCGUCUUGAUGCCCUUGGAAGUCCGGUCUGAUGAGUCCUGUGUGGACGAAACAGC [UGUGU], the “FACS-Seq fitted mean (log10)” value (theophylline [1]) was 0.525 ± 0.032, the “normalized RNA/DNA level with ligand (log10)” value (theophylline [2]) was 1.88 ± 0.044 and the “normalized RNA/DNA level without ligand (log10)” value (theophylline [3]) was 1.87 ± 0.15. For the same variant, the “FACS-Seq fitted mean (log10)” value (theophylline [4]) was 0.589 ± 0.048.

In the case of GCUGUCACCGGAAUACCAGCAUCGUCUUGAUGCCCUUGGAAGUCCGGUCUGAUGAGUCCUUGGAGGACGAAACAGC [UUGGA], the “FACS-Seq fitted mean (log10)” value (theophylline [1]) is reported as 0.406 ± 0.064, the “normalized RNA/DNA level with ligand (log10)” value (theophylline [2]) is reported as 2.01 ± 0.037 and the “normalized RNA/DNA level without ligand (log10)” value (theophylline [3]) is reported as 1.59 ± 0.14. The “FACS-Seq fitted mean (log10)” value (theophylline [4]) was 0.494 ± 0.023.

With GCUGUCACCGGAAUACCAGCAUCGUCUUGAUGCCCUUGGAAGUCCGGUCUGAUGAGUCCAAUACGGACGAAACAGC [AAUAC] the “FACS-Seq fitted mean (log10)” value (theophylline [1]) was 0.997 ± 0.065, the “normalized RNA/DNA level with ligand (log10)” value (theophylline [2]) was 1.95 ± 0.045 and the “normalized RNA/DNA level without ligand (log10)” value (theophylline [3]) was 1.85 ± 0.084. For the same variant, the “FACS-Seq fitted mean (log10)” value (theophylline [4]) was 1.061 ± 0.0058.

In the case of GCUGUCACCGGAAUACCAGCAUCGUCUUGAUGCCCUUGGAAGUCCGGUCUGAUGAGUCCUGGAUGGACGAAACAGC [UGGAU], the “FACS-Seq fitted mean (log10)” value (theophylline [1]) is reported as 0.442 ± 0.064, the “normalized RNA/DNA level with ligand (log10)” value (theophylline [2]) is reported as 2 ± 0.12 and the “normalized RNA/DNA level without ligand (log10)” value (theophylline [3]) is reported as 1.79 ± 0.056. The “FACS-Seq fitted mean (log10)” value (theophylline [4]) was 0.624 ± 0.073.

With GCUGUCACCGGAAUACCAGCAUCGUCUUGAUGCCCUUGGAAGUCCGGUCUGAUGAGUCCCCGACGGACGAAACAGC [CCGAC] the “FACS-Seq fitted mean (log10)” value (theophylline [1]) was 0.958 ± 0.04, the “normalized RNA/DNA level with ligand (log10)” value (theophylline [2]) was 1.94 ± 0.04 and the “normalized RNA/DNA level without ligand (log10)” value (theophylline [3]) was 1.91 ± 0.13. The “FACS-Seq fitted mean (log10)” value (theophylline [4]) was 1.06 ± 0.043.
